System: Escherichia coli TOP10
Assay: shrunken log2 fold change of peptide-encoding DNA abundance (4.5 h post-induction vs induction); higher = less antimicrobial activity (less host growth inhibition)
Details: time post-induction: 4.5 h; library: site-saturation at positions 5, 18, 19, 20
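Note: peptides expressed intracellularly from a pBAD plasmid library in pooled LB shake-flask culture, induced with 0.3% L-arabinose, DNA abundance read by NGS, three biological replicates, DESeq2 with apeglm shrinkage.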

Row | Sequence | shrunken log2 fold change
1 | RRIRKRPPRLPRPRPRPRHTPRP | 0.328
2 | RRIRKRPPRLPRPRPRPRIMPRP | 0.0472
3 | RRIRKRPPRLPRPRPRPRLFPRP | 0.104
4 | RRIRKRPPRLPRPRPRPRLPPRP | 0.768
5 | RRIRKRPPRLPRPRPRPRMMPRP | 0.492
6 | RRIRKRPPRLPRPRPRPRNTPRP | -0.0381
7 | RRIRKRPPRLPRPRPRPRNWPRP | 0.95
8 | RRIRKRPPRLPRPRPRPRPQPRP | 0.865
9 | RRIRKRPPRLPRPRPRPRQHPRP | 0.499
10 | RRIRKRPPRLPRPRPRPRRLPRP | 0.0159
11 | RRIRKRPPRLPRPRPRPRRRPRP | 1.27
12 | RRIRKRPPRLPRPRPRPRRVPRP | 0.569
13 | RRIRKRPPRLPRPRPRPRSSPRP | 0.263
14 | RRIRKRPPRLPRPRPRPRTNPRP | 0.238
15 | RRIRKRPPRLPRPRPRPRTVPRP | 0.244
16 | RRIRKRPPRLPRPRPRPRVRPRP | 0.755
17 | RRIRKRPPRLPRPRPRPSCLPRP | -0.307
18 | RRIRKRPPRLPRPRPRPSFKPRP | -0.0346
19 | RRIRKRPPRLPRPRPRPSGMPRP | 0.115
20 | RRIRKRPPRLPRPRPRPSGRPRP | 0.288
21 | RRIRKRPPRLPRPRPRPSHPPRP | 0.146
22 | RRIRKRPPRLPRPRPRPSILPRP | -0.11
23 | RRIRKRPPRLPRPRPRPSIVPRP | -0.059
24 | RRIRKRPPRLPRPRPRPSIWPRP | -0.0618
25 | RRIRKRPPRLPRPRPRPSKWPRP | -0.119

Row | Sequence | shrunken log2 fold change
26 | RRIRKRPPRLPRPRPRPSLEPRP | 0.286
27 | RRIRKRPPRLPRPRPRPSLSPRP | 0.549
28 | RRIRKRPPRLPRPRPRPSMFPRP | -0.15
29 | RRIRKRPPRLPRPRPRPSMPPRP | 0.0159
30 | RRIRKRPPRLPRPRPRPSMYPRP | -0.306
31 | RRIRKRPPRLPRPRPRPSNWPRP | -0.00865
32 | RRIRKRPPRLPRPRPRPSPFPRP | 0.0443
33 | RRIRKRPPRLPRPRPRPSPMPRP | 0.132
34 | RRIRKRPPRLPRPRPRPSPYPRP | -0.0694
35 | RRIRKRPPRLPRPRPRPSQKPRP | 0.0284
36 | RRIRKRPPRLPRPRPRPSQNPRP | 0.269
37 | RRIRKRPPRLPRPRPRPSRGPRP | 0.741
38 | RRIRKRPPRLPRPRPRPSRSPRP | 0.0164
39 | RRIRKRPPRLPRPRPRPSSMPRP | -0.0241
40 | RRIRKRPPRLPRPRPRPSTMPRP | -0.145
41 | RRIRKRPPRLPRPRPRPSVDPRP | 0.0884
42 | RRIRKRPPRLPRPRPRPSWQPRP | -0.212
43 | RRIRKRPPRLPRPRPRPTAMPRP | 0.358
44 | RRIRKRPPRLPRPRPRPTCQPRP | 0.333
45 | RRIRKRPPRLPRPRPRPTDLPRP | 0.0464
46 | RRIRKRPPRLPRPRPRPTDQPRP | 0.536
47 | RRIRKRPPRLPRPRPRPTEAPRP | 0.77
48 | RRIRKRPPRLPRPRPRPTEIPRP | 0.162
49 | RRIRKRPPRLPRPRPRPTGIPRP | 0.0402
50 | RRIRKRPPRLPRPRPRPTIGPRP | 0.0992

Row | Sequence | shrunken log2 fold change
51 | RRIRKRPPRLPRPRPRPTINPRP | -0.184
52 | RRIRKRPPRLPRPRPRPTKPPRP | 0.221
53 | RRIRKRPPRLPRPRPRPTKYPRP | -0.106
54 | RRIRKRPPRLPRPRPRPTLQPRP | 0.594
55 | RRIRKRPPRLPRPRPRPTLTPRP | 0.283
56 | RRIRKRPPRLPRPRPRPTNPPRP | 0.155
57 | RRIRKRPPRLPRPRPRPTNRPRP | -0.0262
58 | RRIRKRPPRLPRPRPRPTPFPRP | 0.113
59 | RRIRKRPPRLPRPRPRPTPWPRP | 0.798
60 | RRIRKRPPRLPRPRPRPTPYPRP | 0.235
61 | RRIRKRPPRLPRPRPRPTQDPRP | 1.3
62 | RRIRKRPPRLPRPRPRPTRAPRP | 1.2
63 | RRIRKRPPRLPRPRPRPTRNPRP | 0.547
64 | RRIRKRPPRLPRPRPRPTSSPRP | 0.0586
65 | RRIRKRPPRLPRPRPRPTSTPRP | 0.489
66 | RRIRKRPPRLPRPRPRPTSYPRP | -0.152
67 | RRIRKRPPRLPRPRPRPTWPPRP | 0.766
68 | RRIRKRPPRLPRPRPRPTWQPRP | 0.58
69 | RRIRKRPPRLPRPRPRPTYHPRP | -0.283
70 | RRIRKRPPRLPRPRPRPTYQPRP | -0.191
71 | RRIRKRPPRLPRPRPRPVAGPRP | 0.127
72 | RRIRKRPPRLPRPRPRPVCAPRP | 0.904
73 | RRIRKRPPRLPRPRPRPVCDPRP | 0.683
74 | RRIRKRPPRLPRPRPRPVDHPRP | 0.147
75 | RRIRKRPPRLPRPRPRPVECPRP | 0.22

Row | Sequence | shrunken log2 fold change
76 | RRIRKRPPRLPRPRPRPVGFPRP | 0.485
77 | RRIRKRPPRLPRPRPRPVGGPRP | 0.544
78 | RRIRKRPPRLPRPRPRPVHLPRP | -0.0295
79 | RRIRKRPPRLPRPRPRPVHNPRP | -0.0446
80 | RRIRKRPPRLPRPRPRPVIAPRP | 0.437
81 | RRIRKRPPRLPRPRPRPVLKPRP | 0.185
82 | RRIRKRPPRLPRPRPRPVLTPRP | 0.342
83 | RRIRKRPPRLPRPRPRPVMHPRP | -0.0631
84 | RRIRKRPPRLPRPRPRPVMKPRP | 0.535
85 | RRIRKRPPRLPRPRPRPVQAPRP | 0.741
86 | RRIRKRPPRLPRPRPRPVQDPRP | 0.295
87 | RRIRKRPPRLPRPRPRPVQGPRP | -0.0824
88 | RRIRKRPPRLPRPRPRPVQLPRP | 0.349
89 | RRIRKRPPRLPRPRPRPVQWPRP | 0.743
90 | RRIRKRPPRLPRPRPRPVRMPRP | 0.0401
91 | RRIRKRPPRLPRPRPRPVSEPRP | 0.189
92 | RRIRKRPPRLPRPRPRPVTAPRP | 0.147
93 | RRIRKRPPRLPRPRPRPVTNPRP | -0.0569
94 | RRIRKRPPRLPRPRPRPVVWPRP | 0.602
95 | RRIRKRPPRLPRPRPRPVVYPRP | -0.266
96 | RRIRKRPPRLPRPRPRPWAIPRP | 0.14
97 | RRIRKRPPRLPRPRPRPWAQPRP | 0.315
98 | RRIRKRPPRLPRPRPRPWAWPRP | -0.00174
99 | RRIRKRPPRLPRPRPRPWCAPRP | 0.113
100 | RRIRKRPPRLPRPRPRPWCRPRP | -0.189

Row | Sequence | shrunken log2 fold change
101 | RRIRKRPPRLPRPRPRPWDRPRP | 0.394
102 | RRIRKRPPRLPRPRPRPWEEPRP | -0.000921
103 | RRIRKRPPRLPRPRPRPWGCPRP | 0.131
104 | RRIRKRPPRLPRPRPRPWGGPRP | 0.407
105 | RRIRKRPPRLPRPRPRPWHYPRP | 0.0725
106 | RRIRKRPPRLPRPRPRPWKIPRP | -0.00192
107 | RRIRKRPPRLPRPRPRPWKRPRP | 0.024
108 | RRIRKRPPRLPRPRPRPWLLPRP | 0.0409
109 | RRIRKRPPRLPRPRPRPWMFPRP | -0.000428
110 | RRIRKRPPRLPRPRPRPWMVPRP | 0.0578
111 | RRIRKRPPRLPRPRPRPWPPPRP | 0.56
112 | RRIRKRPPRLPRPRPRPWQKPRP | 0.121
113 | RRIRKRPPRLPRPRPRPWRTPRP | 0.379
114 | RRIRKRPPRLPRPRPRPWSGPRP | 0.104
115 | RRIRKRPPRLPRPRPRPWSHPRP | 0.0601
116 | RRIRKRPPRLPRPRPRPWSNPRP | 0.202
117 | RRIRKRPPRLPRPRPRPWTPPRP | 0.246
118 | RRIRKRPPRLPRPRPRPWTYPRP | 0.0938
119 | RRIRKRPPRLPRPRPRPWVEPRP | 0.104
120 | RRIRKRPPRLPRPRPRPWVVPRP | 0.423
121 | RRIRKRPPRLPRPRPRPWWAPRP | -0.287
122 | RRIRKRPPRLPRPRPRPWWVPRP | 0.404
123 | RRIRKRPPRLPRPRPRPWYEPRP | -0.0672
124 | RRIRKRPPRLPRPRPRPYCAPRP | -0.254
125 | RRIRKRPPRLPRPRPRPYCEPRP | -0.102

Row | Sequence | shrunken log2 fold change
126 | RRIRKRPPRLPRPRPRPYDEPRP | -0.293
127 | RRIRKRPPRLPRPRPRPYEVPRP | -0.205
128 | RRIRKRPPRLPRPRPRPYFDPRP | -0.383
129 | RRIRKRPPRLPRPRPRPYFPPRP | -0.348
130 | RRIRKRPPRLPRPRPRPYGNPRP | -0.135
131 | RRIRKRPPRLPRPRPRPYHPPRP | 0.0155
132 | RRIRKRPPRLPRPRPRPYIAPRP | -0.293
133 | RRIRKRPPRLPRPRPRPYKCPRP | -0.168
134 | RRIRKRPPRLPRPRPRPYLNPRP | -0.362
135 | RRIRKRPPRLPRPRPRPYMQPRP | -0.0263
136 | RRIRKRPPRLPRPRPRPYMWPRP | -0.0774
137 | RRIRKRPPRLPRPRPRPYPEPRP | -0.0874
138 | RRIRKRPPRLPRPRPRPYQFPRP | -0.17
139 | RRIRKRPPRLPRPRPRPYSPPRP | -0.23
140 | RRIRKRPPRLPRPRPRPYSTPRP | -0.0551
141 | RRIRKRPPRLPRPRPRPYTIPRP | -0.0634
142 | RRIRKRPPRLPRPRPRPYVNPRP | -0.526
143 | RRIRKRPPRLPRPRPRPYWDPRP | -0.219
144 | RRIRKRPPRLPRPRPRPYWLPRP | -0.229
145 | RRIRKRPPRLPRPRPRPYYMPRP | -0.405
146 | RRIRKRPPRLPRPRPRPYYTPRP | -0.34
147 | RRIRLRPPRLPRPRPRPADPPRP | 0.0111
148 | RRIRLRPPRLPRPRPRPADWPRP | 0.196
149 | RRIRLRPPRLPRPRPRPAFDPRP | -0.0259
150 | RRIRLRPPRLPRPRPRPAGQPRP | -0.0451
